The values below come from paper PMC11001878, “Engineering an artificial catch bond using mechanical anisotropy” (Nature Communications, 2024).

The target in test [1] is ybbr-ELP-FLN-DocG (Ruminococcus champanellensis). Put plainly: AFM single-molecule force spectroscopy; constant pulling speed (100, 400, 800, 3200 nm/s); both partners tethered through ybbr tags, CohE on the cantilever and DocG on the glass; dwell 200 ms; TBS Ca buffer (25 mM Tris, 72 mM NaCl, 1 mM CaCl2, pH 7.2); zero-force off rate k0 from a Bell-Evans fit, one for each unbinding pathway.

For test [2], the target named is DocG-FLN-ELP-ybbr (Ruminococcus champanellensis). The description is as above.
Test [3] concerns the target T1, DocG A77C mutant protein labeled with Cy3b (Ruminococcus champanellensis, A77C, Cy3b (maleimide-conjugated) on the cysteine at 77).
T1 chain: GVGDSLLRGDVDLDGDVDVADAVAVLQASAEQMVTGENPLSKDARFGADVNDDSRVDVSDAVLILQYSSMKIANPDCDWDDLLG
Put plainly: MST; 20 nM Cy3b-labelled DocG A77C mixed with a series of CohE, 16 samples, 0.0763 nM to 2.5 µM; Nanotemper Monolith NT.115. The note with it: both partners purified.

In turn, ybbr-ELP-FLN-CohE (domain or fragment) displayed a log(k0), single pathway in test [1] of -4.2.
Take CohE-FLN-ELP-ybbr (domain or fragment): the log(k0), high force pathway in test [2] and in test [1] was -7 each time. Also, the values for the log(k0), low force pathway in test [2] and in test [1] were -31 and -9, respectively.

B1: CohE wild-type (domain or fragment)
chain: LSMDQKFAEPGETVEIALNLENFDASWTGLEFLVNYDPKLEVALDGAGDIDYSYGDAIGAMGKKISVGGAISKDLTADGLKGFAFAWGTATAISGNGQLGVFKFTVPADAQPGDEFPVNLTVNVGSFIDANKENIPFETVNGWIKI
With B1, in test [3], binding was put at a Kd of 14 ± 4 nM.

B2: CohE K87AzF-Fgβ (domain or fragment)
chain 1: LSMDQKFAEPGETVEIALNLENFDASWTGLEFLVNYDPKLEVALDGAGDIDYSYGDAIGAMGKKISVGGAISKDLTADGLKGFAFAWGTATAISGNGQLGVFKFTVPADAQPGDEFPVNLTVNVGSFIDANKENIPFETVNGWIKI
chain 2: NEEGFFSARGHRPLDGSWSHPQFEKGSGSC
modifications: azido-phenylalanine (AzF) at 87, covalently conjugated by the azide-DBCO click reaction with the Fgβ-StrepTag-DBCO peptide | C-terminal cysteine bearing DBCO, linked to the azide of AzF87 of the CohE chain
As to B2, the Kd (as a rule, the constant that tells how readily two partners part at equilibrium) in test [3] was found to be 19 ± 10 nM.

B3: CohE F13AzF-Fgβ (domain or fragment)
chain 1: LSMDQKFAEPGETVEIALNLENFDASWTGLEFLVNYDPKLEVALDGAGDIDYSYGDAIGAMGKKISVGGAISKDLTADGLKGFAFAWGTATAISGNGQLGVFKFTVPADAQPGDEFPVNLTVNVGSFIDANKENIPFETVNGWIKI
chain 2: NEEGFFSARGHRPLDGSWSHPQFEKGSGSC
modifications: azido-phenylalanine (AzF) at 13, covalently conjugated by the azide-DBCO click reaction with the Fgβ-StrepTag-DBCO peptide | C-terminal cysteine bearing DBCO, linked to the azide of AzF13 of the CohE chain
In test [3], B3 had an equilibrium dissociation constant (Kd) of 40 ± 8 nM.
